± gives the uncertainty stated by the source.
Experiment: protein stability index of a GFP-peptide fusion (yeast GPS) (PSI 1-4); higher = more stable; sorted into four equal gates, so the index is relative within each strain
How it was run: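 For each peptide, the protein stability index sums the read frequency in every gate after multiplying it by the gate number. Read frequencies came from plasmids that were PCR-amplified from each gate and Illumina-sequenced, with reads assigned to strains by barcodes. The gates were four equal bins of GFP/Cherry fluorescence ratio applied to mid-log yeast in leucine-free medium carrying a pooled library of tiled 17-residue yeast protein peptides fused downstream of GFP on a Cherry-expressing plasmid.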

Sequence	protein stability index (pdr5∆)	protein stability index (ubr1∆)	protein stability index (doa10∆)	protein stability index (san1∆)
LAPELNQAIWKRGVKGV [RPL31A]	2.04 ± 0.22	1.57 ± 0.19	–	–
SPEEQRSLLQEAIETCK [GAL11]	2.97 ± 0.13	2.88 ± 0.069	1.88 ± 0.099	2.63 ± 0.18
ERRVLLSAPLSKELRAQ [RPL26B]	2.9 ± 0.047	2.79 ± 0.043	2.87 ± 0.07	2.89 ± 0.055
HESTSRTDQYTIDNIDS [YMR129W/POM152]	2.9 ± 0.053	2.86 ± 0.045	2.84 ± 0.053	2.9 ± 0.045
LLTNSNNGSSNNNTQNT [SNF5]	3.25 ± 0.084	3.18 ± 0.055	2.99 ± 0.082	3.17 ± 0.069
FDHNDKKLSINSAARNI [PRE7]	2.47 ± 0.059	2.83 ± 0.065	2.72 ± 0.059	2.4 ± 0.055
GIKVLPETCLFVSYFGK [YML103C/NUP188]	2.42 ± 0.038	2.68 ± 0.039	2.7 ± 0.055	2.44 ± 0.074
NFILEVFGTIIPKISDY [YJL039C/NUP192]	1.68 ± 0.22	1.61 ± 0.26	2.05 ± 0.17	–
VSTKTNEYRLAFYQVTP [RPL22A]	2.19 ± 0.04	2.48 ± 0.048	1.86 ± 0.038	2.6 ± 0.056
MKIQAGQLGLDDNDVPG [YLR018C/POM34]	3 ± 0.14	3.11 ± 0.29	3.22 ± 0.19	2.5 ± 0.21
AIGYPTLPSVGHTLINN [RPP0]	2.65 ± 0.13	–	3.06 ± 0.21	–
VGTAIDSILNYAKSEFD [ECM29]	2.77 ± 0.1	3.08 ± 0.088	2.76 ± 0.2	2.92 ± 0.25
TTFTKVAAKWNTSLISL [PRP8]	2.39 ± 0.06	2.06 ± 0.036	2.09 ± 0.052	2.4 ± 0.082
KERNSLKKLKAMNDACY [BRR2]	3.16 ± 0.059	3.05 ± 0.06	3.18 ± 0.086	2.98 ± 0.051
DSEKRNKYAAMLTSENA [RRP45]	3.02 ± 0.063	2.92 ± 0.04	2.97 ± 0.068	3.14 ± 0.067
KRRKLDLNNAVQKRDEV [SMC4]	2.89 ± 0.12	2.96 ± 0.079	3.41 ± 0.26	2.96 ± 0.068
IFLAERRILPKPSRTSR [RPS7A]	3.15 ± 0.21	2.89 ± 0.13	–	2.8 ± 0.14
NENPINKIMTNQINSFW [NUT1]	2.66 ± 0.064	2.9 ± 0.042	2.5 ± 0.065	2.43 ± 0.054
DNKIDIYQIHIPYAAKL [RPB2]	2.5 ± 0.11	2.92 ± 0.063	3.16 ± 0.082	3.15 ± 0.092
IWNDVVYGEGTSRVTGI [YJL039C/NUP192]	3.4 ± 0.17	3.45 ± 0.091	3.35 ± 0.15	–
FGFSSSGTAATGAASNQ [YOR098C/NUP1]	3.41 ± 0.13	3.31 ± 0.07	2.69 ± 0.11	–
ELGEKKNEKLKFQETLL [ISW2]	2.7 ± 0.1	2.88 ± 0.12	2.86 ± 0.096	2.85 ± 0.11
NAEKTGKRQVLIRPSSK [RPS22A]	3.26 ± 0.12	3.03 ± 0.075	3.28 ± 0.16	3.13 ± 0.14
TTVPFKESDDPSIPLVI [POP1]	3.01 ± 0.069	2.89 ± 0.077	2.8 ± 0.068	2.87 ± 0.054
LLSLISTTAALQSISSL [RPN7]	1.95 ± 0.05	2.24 ± 0.049	1.94 ± 0.053	1.77 ± 0.075

Sequence	protein stability index (pdr5∆)	protein stability index (ubr1∆)	protein stability index (doa10∆)	protein stability index (san1∆)
GEKNFTSAHLKLKEMQK [SMC4]	3.35 ± 0.12	3.14 ± 0.24	3.01 ± 0.14	3.27 ± 0.078
QWMVSLFNNHLNGILAD [SNF2]	1.46 ± 0.11	1.2 ± 0.059	1.39 ± 0.12	1.37 ± 0.14
EGMFANANRVFRTRFQD [SMC2]	1.76 ± 0.089	2.31 ± 0.078	2.26 ± 0.097	2.68 ± 0.25
KPTSPFIDSICKLFDKI [SRB8]	1.93 ± 0.035	1.41 ± 0.034	1.56 ± 0.04	1.56 ± 0.055
ASLVPEGNQGSLQEDVS [MED8]	3.24 ± 0.087	2.41 ± 0.097	3.19 ± 0.096	2.9 ± 0.048
VHTANFSERGSNTRTMT [MED2]	3.35 ± 0.26	3.26 ± 0.22	3.37 ± 0.3	3.08 ± 0.14
YIRVNHADKDTFSSSIS [POP8]	2.61 ± 0.052	2.18 ± 0.037	2.76 ± 0.049	2.52 ± 0.053
IYNGKAFNQVEIRPEML [RPS15]	3.04 ± 0.18	3.26 ± 0.14	2.9 ± 0.12	3.39 ± 0.11
KAKRSNLYTPKAEMPPE [PRP8]	3.05 ± 0.081	2.89 ± 0.077	2.98 ± 0.084	2.84 ± 0.063
VTEDGTVVTVVSTAKFS [RPL22A]	2.81 ± 0.14	2.59 ± 0.061	2.52 ± 0.13	2.2 ± 0.12
QGPIVADKNCAKLHRIS [PUP1]	2.94 ± 0.088	2.64 ± 0.072	3.41 ± 0.15	2.79 ± 0.1
EHIKEGSEIAISSLGYR [SWI3]	3.02 ± 0.063	2.95 ± 0.052	2.78 ± 0.055	2.99 ± 0.05
SEVANNGLIISWSNGKI [RRP42]	1.66 ± 0.054	2.54 ± 0.14	2.28 ± 0.13	3.03 ± 0.091
ERLQLLEDVVGAKSFEV [SMC3]	–	–	3.14 ± 0.21	–
QRQLLVQQQQQQQLRNQ [SNF5]	2.54 ± 0.11	2.6 ± 0.1	2.2 ± 0.071	2.44 ± 0.19
QNRSLQEHNIQDSNVMP [SNF2]	3.08 ± 0.053	3.31 ± 0.04	3.19 ± 0.057	2.92 ± 0.04
VDNENNKPAIKEDSTIQ [SWI3]	2.97 ± 0.069	3.12 ± 0.062	2.84 ± 0.063	3.08 ± 0.058
KVQISKIPILAQHESFL [RPN9]	2.05 ± 0.045	2.41 ± 0.037	1.97 ± 0.06	2.16 ± 0.075
NPFTSATSSTNANAGLF [YOR098C/NUP1]	2.84 ± 0.1	3.31 ± 0.074	2.72 ± 0.077	2.82 ± 0.093
EGFAADDEPTTPAELVG [FAS1]	3.19 ± 0.092	3.19 ± 0.076	3.3 ± 0.09	3.2 ± 0.071
IMDNDPVLFNRQPSLHK [RPO21]	2.17 ± 0.069	1.84 ± 0.074	1.77 ± 0.074	2.26 ± 0.23
GGLKSCDLDFPLRENTN [YDL116W/NUP84]	2.29 ± 0.059	2.2 ± 0.057	2.59 ± 0.058	2.25 ± 0.077
TGMSSMSPFLRKVVKPS [SRB4]	2.76 ± 0.088	2.48 ± 0.049	2.76 ± 0.075	1.97 ± 0.12
KANEKKESDESKSAFSF [YJL041W/NSP1]	3.4 ± 0.07	3.12 ± 0.043	2.95 ± 0.099	3.18 ± 0.042
ICERIFEQGQALKEDER [RRI2]	–	3.21 ± 0.19	–	–
